Source: the DeepSol protein solubility set

assay: soluble on expression in E. coli; label from the status in PepcDB or PDB records

| Sequence | soluble on expression in E. coli |
| --- | --- |
| SNAMTQQDFRTKVDNTVFGVRATALIVQNHKLLVTKDKGKYYTIGGAIQVNESTEDAVVREVKEELGVKAQAGQLAFVVENRFEVDGVSYHNIEFHYLVDLLEDAPLTMQEDEKRQPCEWIDLDKLQNIQLVPVFLKTALPDWEGQLRHIHLEE | soluble |
| MCLEPIIAPISSELLEQELTADRFLRMTNKAGNEIYVFTAEEAPHCMKEVGRLREEAFRHYGGGTGKAIDIDEFDTMPGSYKQLIVWDPQNKAILGGYRFIYGRDVAFDTDGKPLLATAEMFRFSDAFLHDYLPYTVELGRSFVSLQYQSTRMGTKAIFVLDN | not soluble |
| MKRIGVVLGRREATPLEFWVGVEGDGLLRLDDLVVVEGFHPQVGQVRFFGMVDHVAKVHEGESFDTDTFLAVEGKIPVSLAYVAHVSVTRILPEEFFPPDPGSPVYLAQEEDLELALYYDAMRNQRGSTKLPAGLLKNGEVAYLNLEFLNGVKGGHVNISGISGVAAKTSYATFLLKSLLESGVLEDAHQARVLLFNVKGEDLFFLDKPNARLTEEARKAYARLGLPATPFQSVAFLAPPKKAGYLPDVDTRLEGVEAYHWDLVQFCQRGLLPFLFADRAAMTNLGFLVAHVTEKLKRLAEGQKGPHLQVEDWPGGEASEGMSFDQLGKARLKSFSDLVRYLEYKLLGPETGEGEGDRGWTARQAKGTLEAFVRRLRSSVENVAHLVRGDRPGSPPDPLSGKAQVHVVDLAKLSPQAQMFVVGSLLKDLFERKERGQYRGRVFIVLDELNKYAPREEESPIKDVLLDIAERGRSLGVILIGAQQTASEVERRVVGNAAIRVVGRLDAAEAERPEYRYLPTSFRQRALILPQGAVILHQPEIPVPLLVHFPFPAWATKREEVLEDNSAEALRREFFR | soluble |
| MLTIGGKSFQSRLLLGTGKYPSFDIQKEAVAVSESDILTFAVRRMNIFEASQPNFLEQLDLSKYTLLPNTAGASTAEEAVRIARLAKASGLCDMIKVEVIGCSRSLLPDPVETLKASEQLLEEGFIVLPYTSDDVVLARKLEELGVHAIMPGASPIGSGQGILNPLNLSFIIEQAKVPVIVDAGIGSPKDAAYAMELGADGVLLNTAVSGADDPVKMARAMKLAVEAGRLSYEAGRIPLKQYGTASSPGEGLP | soluble |
| MGSDKIHHHHHHMRKILLPYPAGCATGTFVRRVKRFSVEMTRDGESVWVHSNNSGSMLGLLRPGATMLASPAANPDRKLAWTHEAMRCHGDGPQGFWVGVNTSVPNRMVEAAFHAGRLPWAQGYDTFRRERKRGDSRLDARLDGPGLPTLWVECKNVTMVEDDVACFPDAVTERGSKHLREMMDIVSRGERAAMFYLVQRPDGLCFGPADVIDPQYAALFWEAVDAGVEMYPHRGIVSPVGIDLSGVLPLTRCR | not soluble |
| ASMTGGQQMGRGSDSKPPYSYAQLIVQAITMAPDKQLTLNGIYTHITKNYPYYRTADKGWQNSIRHNLSLNRYFIKVPRSQEEPGKGSFWRIDPASESKLIEQAFRKRRPR | soluble |
| MKKSYLVTPLVAGALILPAALPATAAQASAPAPAAVSTVNKTALTTDQIKAERSALNSRINMLQETQKAIPGSQYADQIEDLIKTALDLSGAIDTIAHGGVPAYDPATIVPRIHLAIDAADAIKTGNTTLQHKVKKAHVELGLEIAKASIVAINPASSVAQVQDEIKALKARIDKVSAYPDLSKDDTATIAYKQTLRKTIHEVRVGRNKNIVGKKDQAVVDTLNKEISKADKVRANAKSTVAQVDTAVDQLRAAYQTALNAPDKAKKLEHHHHHH | not soluble |
| MGSDKIHHHHHHMTGDATPPVGLRFAQDKTHEVFMKRYRHTQILALLETRSAIRATEAAEMLGVSVGTIRRDMAELEAGGYLNRTHGGAFAAIEGEAGFMRRTCWNRDKKRVIGQAAAAHISSGSVVFIDGGTTPEAMLPFLVEKTSLTVVTCGLNIALQLLRWPYISTILLGGEVHAESRTVTGTLPVTQLDSFGMRFDMAVIATAGISAEHGATNRMLERLALKQLVLRNSASSILVGDSSKVNCAFLGRVAPLSAFSLCIMDDDLTDEQKAKLSEAGRFEFVPLEGSRRR | not soluble |
| MSLKENKYDDKHFFEQYSQMPRSKEGLKAAGEWHELKKMLPDFNQKTVLDLGCGFGWHCIYAAEHGAKKVLGIDLSERMLTEAKRKTTSPVVCYEQKAIEDIAIEPDAYNVVLSSLALHYIASFDDICKKVYINLKSSGSFIFSVEHPVFTADGRQDWYTDETGNKLHWPVDRYFNESMRTSHFLGEDVQKYHRTVTTYIQTLLKNGFQINSVIEPEPAPELKDLPEMQDEYRRPMMLLISATKQEGHHHHHH | soluble |
| MRKAERVRKTNETDIELAFTIDGGGQADIKTDVPFMTHMLDLFTKHGQFDLSINAKGDVDIDDHHTTEDIGICLGQALLEALGDKKGIKRYGSAFVPMDEALAQVVIDLSNRPHLEMRADFPAAKVGTFDTELVHEFLWKLALEARMNLHVIVHYGTNTHHMIEAVFKALGRALDEATTIDPRVKGIPSTKGMLLEHHHHHH | not soluble |
| MGSDKIHHHHHHMPDMSMFGILNTALTGIHAHKLAMNIVGHNIANASTPGYSRQRPVIEANPPIPLTTLTQPSFPLQMGTGARVKTIVRLRDAFLDVQYRQVNNRYNYWDTVLSNLHFIEQLLAEPGEDGIRSLVDNFWNAFKEVMSDPSSTASKAEVVSRAQQMVSQIKDLYGRLEQLREDIDAEIVQRVSEINQMIKRLADLNNKIRTSMMLNSPPNDLLDERDRILDELSNLANINYTEAEDGQITLRIGNQIVLNGSTYRELRALERPYGKGYHELFVGNSQLILSDGKLKALIDLRDSSIVKYMRKLDEFVLFITDSLNLVHRDGFESNGVTTNLNFFKKIEAFSDDPSIFRIKGNRKLEMGPYHTVTGLHSANSQAEIEGRRFNSNDVVLSFDGGSSNVLNISAGTTIGDLVGSWNLLGTSLKVGTHAGGYRLYLEDSTGSLRNRLFLSLGDSLSQMGFDTETKGYITIKESDLSGLSSGVYNINVEYILEDGTRQTETISVDLSSGVNLSNIEASINSSSHLRAQIYADPSTGENMLVIVPDEQLNFDPSAVKVLSDDDFFTESNAFVRNYEVLKYKDTLENIFYGQTGFDPTRPFTITINSTDIEIDPAVDTLETLVEKINEKNTGVLADLTPHHSLVFRASSLYDFDLRMMEIKGPQGFFEAVGFVDPDGDPTTFDWNTSFTLVSKSDDFTTLSERFKVADILTFDRAPYDEPLNIVNQFEVSSSLATNPANLAVDVGYALENSDWNATSIKPSGGANPELLETIQNLYTRKMLSNGKESFYEFFGGVVSELGVEAETASNLKNNTEILRQEIDNAREEVKGVSLDEEMANMIEYQHAFSAAAKVITAVDQMIQTVINMVG | not soluble |
| GAMGNKEKADQQKAITDIVALENALDMYKLDNSVYPTTDQGLEALVTKPSSPEPRNYRNGGYIKRLPKDPWGNEYQYMSPGDKGTIDIFTLGADGQEGGEGAAADIGNWNMQDFQ | soluble |
| MSLTKTVLILTAAIDLDGGDWFSPCWERVTRSMALGKAGDIIHGCVPGAALAIREEKPIAAGRSAQNRRGSFREQEDGSYVLLAGRIFNRTDLLRRFDLKQGMDDADLYAAVSARMGEAAYRAIVGDYAALQWFPQRRSLRLARSGTSNMPLHVWRDGSRIVISSLPGPILASGVPARINDDRVADELLLFSPDGRTSFYAGMHRVPGGGEEVHDPSGFKARRLWSVKDAPEIRLRRDEDYVEALDVLFDEAVSATMDGSSAPGILLSGGFDSQTVASYAVKRLPAGRRLQAFTSVPMQGWTPPPRPGIFGDESAHVRALCAMYPQIEPHFIEAADFRYGERGHRQFLVGGWPVFNEMNAHWSHASLEQAADLGCDLMLTGDLGNSGFSYDGLTGYPTWLREGQWFRLLREIGKSDDPRPFWRKLISLAVMPHVPVRWKRKMDRHRPWRPSAFATWCGMREDFARESGVLDRAEAGGHDIDFYDIPSARTWRANVVDSLNDGAPEIYLGYQLLYGVPMRDPTAYLPLLEFCAGIPDEQYLRDGQTRWLARRLMQGRVPEMVRLENRIGAQSSDWPQRFARDREDLIAEMERMKADERLAKIFDFERLAANLREWDGSDRPESRSNFKINAAVGRAMVSARFVSHVEGRNVGEGHHHHHH | soluble |
| MELVYMDGKKEPYTTSEIIAECAEVQHHTITRLIRENKADFEELGILGFKIHKLDTRGQPKKSYILNEQQATFLITYLKNTETVRQFKLNLVKAFFEMREELSEIRLQRALEKPKRKTLHDSIETWPNAPKHAHSTMNNLLLKAVTDMNAKQLREERGGYNGIDSLTSEELEQYQAFEDMAIAMIELKMSYQEIKTMMFRSKKIS | not soluble |
| MSRRRIRKFERPEEALLHLLDAAGIYRVGSRVWLHKPRVRELGFQYLAVETLVREYALAAEREYRGSVVYSKVYGGREYKILLGRGEEVAEASLADPSTVQRLLFSWRHLEELLPSPPLPAFVVDLSLKFMHTEEELSKLRLQIAVALSEVRKYLWDPHLVLTNMDPQTSGWISEVLGDNKVTISQSKPSEILWSMDADRVVILRPDAPQPLSGSEVLAADAFLIGGIVDRIPRPGVSRILDNLVPWGVPRRIELRGSVAGVPERINRIVEILLKARYKYPGNLEKAIITSMTKKDVLTRVYSEIIKRGRRVGSELVVEWSLYEDLSSWLPLTPEDFMLAAKRARARIEGAPRRDNALEHHHHHH | not soluble |
| MAHHHHHHMSSVDSTHRLLHPCTGILPSASLHGRHSIALAPPPTLPPPPLLHTRIPIHIHIIHYATLNPATFLDHSTQLDYEMPTRFKKCRHQRGSTFCGYGRVGKHRKHESGRGNAGGMHHHRINFDKYHPGYFGKLGMDHYHRKKNPMWKPTINLNNLSRLIAAEEAAKAAKGGTLPVVDLQSSGYAKLLGNGHIQVPCIVKARYVSKLADKKIRKAGGAVVLQA | not soluble |
| MDNVVDRHVFYISDGTAITAEVLGHAVMSQFPVTISSITLPFVENESRARAVKDQIDAIYQQTGVRPLVFYSIVLPEIRAIILQSEGFCQDIVQALVAPLQQEMKLDPTPIAHRTHGLNPGNLNKYDARIAAIDYTLAHDDGISLRNLDQAQVILLGVSRCGKTPTSLYLAMQFGIRAANYPFIADDMDNLTLPTSLKPLQHKLFGLTIDPERLAAIREERRENSRYASLRQCRMEVAEVEALYRKNQIPCLNSTNYSVEEIATKILDIMGLNRRMYLEHHHHHH | soluble |
| MTEEVGQKLLESLSLFKLGDIGYARIECELLTTFLEEQLENNLDSLSIHELSTNLIRNRICCREFIESRPAKKWVFLIFRLARTLFRDKTRIATFHSVNLHSEFVQVFWRNLTYQTKSYRNCKFQTFQFIASRFLRSEHDWNVTVVNCLNVTQKLIDNGENARKFVDCNLEDAVLVLLATRQMTVLQHSLEILGRLSDWSTTCRENLLCISLLRILSCEEQAREQIRIYDGVPTLLGLLSIKNSRLQWHVAWTLAQLAEQHETSLEIAQLGGISLIFAAISNPKPPGKAVGDWVAMLTGLTALLAQLAQASSNQQLMSNANGVYILGKLLAIKKNVTTDETIDSWDLLQCSIFRVLRLMYTFERSRQLLKKVLPTEIFEKFVDVGNYNSVLTDYDQIAKMYDNLIEENIEIMKDWETVNERRQAVGEVGEYELLDQLGAGAFGCVYTVRKKAQSHSENPAKLLALKEIFMTNLNDRESDKSFGDMISEVKIIKQQLRHPNIVRYRRIFVENHRLYIVMDLIQGCSLRDLIITMKEKKGNFEEKKIWAMVVQMMLALRYLHKEKQIVHRDLKPNNIMMTTDERVVITDFGLAKQKGPEYLKSAAGTIIYSCPEIVQNLPYGEKADIWSFGCCIYEMCQLQPVFHSTNMLTLAMQIVEAKYDPLNEMWSDDLRFLITSCLAPDPSARPDILKVSGMCGVRLLEYLDDVARQQASTSDMTASQSSYNIKIDESPSSLNSSTSSYKRPGRSSKTSGSGKLPPINPAPRRNHSMSAGETPRPSSIVCLPRITDKYSVMFPSAPSAIPSRRRVQTCSTEHPARSSSSTELKVSKQSDGLTVSSNVLRQIQDPVLTILNQIHRILVVTDKETISTSMNHQRRLVEMFRKNLLGRENDAVQMKTHLRKLAAESPEEIQMNLGFSDFRPVLVQSHINGYQKDQKVTKITYEQLSACIECLIAENPAAK | soluble |
